T1: mouse CNTN4 overexpressed on 293F cells (mouse, UniProt Q69Z26 19-1000)
T1 construct: whole, on cells; Overexpressed on 293F cells; the construct is not described; also called Mouse CNTN4 cell; mouse antigen-overexpressing 293F cells
T1 sequence (looked up): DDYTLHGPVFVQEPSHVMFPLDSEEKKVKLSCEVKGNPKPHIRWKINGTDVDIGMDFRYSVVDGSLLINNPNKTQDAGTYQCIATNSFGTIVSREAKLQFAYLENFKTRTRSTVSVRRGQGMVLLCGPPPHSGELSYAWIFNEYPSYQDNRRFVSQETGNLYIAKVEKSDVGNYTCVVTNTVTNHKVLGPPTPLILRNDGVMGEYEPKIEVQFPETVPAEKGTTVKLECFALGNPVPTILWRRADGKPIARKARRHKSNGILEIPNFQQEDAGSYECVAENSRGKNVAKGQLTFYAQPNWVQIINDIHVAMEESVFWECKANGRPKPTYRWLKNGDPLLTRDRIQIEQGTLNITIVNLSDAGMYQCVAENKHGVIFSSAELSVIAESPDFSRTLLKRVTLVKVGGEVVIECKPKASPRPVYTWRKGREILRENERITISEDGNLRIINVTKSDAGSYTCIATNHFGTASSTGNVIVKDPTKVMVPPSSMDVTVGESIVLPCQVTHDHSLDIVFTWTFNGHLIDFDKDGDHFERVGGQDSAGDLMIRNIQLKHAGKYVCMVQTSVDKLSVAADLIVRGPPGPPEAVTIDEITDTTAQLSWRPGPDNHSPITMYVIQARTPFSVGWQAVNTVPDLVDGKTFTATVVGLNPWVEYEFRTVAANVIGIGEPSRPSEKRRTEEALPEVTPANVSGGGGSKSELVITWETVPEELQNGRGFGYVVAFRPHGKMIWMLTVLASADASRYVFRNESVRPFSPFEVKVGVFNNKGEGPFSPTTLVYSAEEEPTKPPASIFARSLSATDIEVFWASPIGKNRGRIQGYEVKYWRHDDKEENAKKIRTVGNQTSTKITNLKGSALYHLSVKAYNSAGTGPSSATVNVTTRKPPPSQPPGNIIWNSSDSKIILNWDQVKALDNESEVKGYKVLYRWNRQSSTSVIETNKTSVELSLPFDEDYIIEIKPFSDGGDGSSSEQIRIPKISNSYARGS


What follows are binders tested against T1, mouse CNTN4 overexpressed on 293F cells (assay: FACS, scFv periplasm on mouse CNTN4-overexpressing 293F cells, PE anti-His detection).

| EC50 [nM] | Top MFI [MFI] | Binder |
| --- | --- | --- |
| 20.2 | 2840 | A108 scFv (scFv, V domains shown) VH: not shown VL: ELTQDPAVSVALGQTVRITCSGSSGSYGWYQQKPGQAPVLVIYDNTNRPSGIPDRFSGSSSGNTASLTITGAQAEDEADYYCGGYDGSTDVFGGGTKLTVL |
| 12 | 2740 | A103 scFv (scFv, V domains shown) VH: not shown VL: ELTQDPAVSVALGQTVRITCSGSSGSYGWYQQKPGQAPVLVIYDNTNRPSGIPDRFSGSSSGNTASLTITGAQAEDEADYYCGGYDGSTDVFGGGTKLTVL |
| 29.4 | 2050 | A104 scFv (scFv, V domains shown) VH: not shown VL: ELTQDPAVSVALGQTVRITCSGSSGSYGWYQQKPGQAPVLVIYDNTNRPSGIPDRFSGSSSGNTASLTITGAQAEDEADYYCGGYDGSTDVFGGGTKLTVL |
| 45.8 | 1100 | A113 scFv (scFv, V domains shown) VH: not shown VL: ELTQDPAVSVALGQTVRITCSGSSGSYGWYQQKPGQAPVLVIYDNTNRPSGIPDRFSGSSSGNTASLTITGAQAEDEADYYCGGYRGSTDVFGGGTKLTVL |
| 17.3 | 2110 | A102 scFv (scFv, V domains shown) VH: not shown VL: ELTQDPAVSVALGQTVRITCSGSSGSYGWYQQKPGQAPVLVIYDNTNRPSGIPDRFSGSSSGNTASLTITGAQAEDEADYYCGGYDGSTDVFGGGTKLTVL |
| 10.4 | 4190 | A111 scFv (scFv, V domains shown) VH: not shown VL: ELTQDPAVSVALGQTVRITCSGSSGSYGWYQQKPGQAPVLVIYDNTNRPSGIPDRFSGSSSGNTASLTITGAQAEDEADYYCGGYDGSTDVFGGGTKLTVL |
| 20.1 | 2150 | A110 scFv (scFv, V domains shown) VH: not shown VL: ELTQDPAVSVALGQTVRITCSGSSGSYGWYQQKPGQAPVLVIYDNTNRPSGIPDRFSGSSSGNTASLTITGAQAEDEADYYCGGYDGSTDVFGGGTKLTVL |
| 8.3 | 2830 | A109 scFv (scFv, V domains shown) VH: not shown VL: ELTQDPAVSVALGQTVRITCSGSSGSYGWYQQKPGQAPVLVIYDNTNRPSGIPDRFSGSSSGNTASLTITGAQAEDEADYYCGGYDGSTDVFGGGTKLTVL |
| 7.6 | 2260 | A114 scFv (scFv, V domains shown) VH: not shown VL: ELTQDPAVSVALGQTVRITCSGSSGSYGWYQQKPGQAPVLVIYDNTNRPSGIPDRFSGSSSGNTASLTITGAQAEDEADYYCGGYWGSTDVFGGGTKLTVL |
| 32.5 | 1860 | A112 scFv (scFv, V domains shown) VH: not shown VL: ELTQDPAVSVALGQTVRITCSGRSGSYGWYQQKPGQAPVLVIYDNTNRPSGIPDRFSGSSSGNTASLTITGAQAEDEADYYCGGYDGSTDVFGGGTKLTVL |
